Data published in patent US20250144228A1 (CHILDREN S MEDICAL CENTER, published 2025).

T1: MICB expressed on transfected B16F10 melanoma cells (human, UniProt Q29980 23-383)
T1 construct: whole, on cells; also called MICB-transfected cells
T1 sequence (looked up): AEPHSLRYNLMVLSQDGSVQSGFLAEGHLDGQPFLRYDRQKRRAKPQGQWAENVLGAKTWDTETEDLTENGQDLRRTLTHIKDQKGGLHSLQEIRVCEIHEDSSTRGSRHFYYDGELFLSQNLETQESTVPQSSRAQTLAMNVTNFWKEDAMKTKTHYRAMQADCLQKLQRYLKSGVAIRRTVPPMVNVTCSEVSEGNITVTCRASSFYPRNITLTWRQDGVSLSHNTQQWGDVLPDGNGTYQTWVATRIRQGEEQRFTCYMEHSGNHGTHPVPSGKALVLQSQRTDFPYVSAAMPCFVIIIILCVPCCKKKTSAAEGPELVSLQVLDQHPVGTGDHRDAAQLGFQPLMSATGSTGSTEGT

T2: P. falciparum MSP-1 subunit p83 (plate-bound, isolated) (Plasmodium falciparum, UniProt Q8I0U8 20-722)
T2 construct: domain: p83
T2 sequence: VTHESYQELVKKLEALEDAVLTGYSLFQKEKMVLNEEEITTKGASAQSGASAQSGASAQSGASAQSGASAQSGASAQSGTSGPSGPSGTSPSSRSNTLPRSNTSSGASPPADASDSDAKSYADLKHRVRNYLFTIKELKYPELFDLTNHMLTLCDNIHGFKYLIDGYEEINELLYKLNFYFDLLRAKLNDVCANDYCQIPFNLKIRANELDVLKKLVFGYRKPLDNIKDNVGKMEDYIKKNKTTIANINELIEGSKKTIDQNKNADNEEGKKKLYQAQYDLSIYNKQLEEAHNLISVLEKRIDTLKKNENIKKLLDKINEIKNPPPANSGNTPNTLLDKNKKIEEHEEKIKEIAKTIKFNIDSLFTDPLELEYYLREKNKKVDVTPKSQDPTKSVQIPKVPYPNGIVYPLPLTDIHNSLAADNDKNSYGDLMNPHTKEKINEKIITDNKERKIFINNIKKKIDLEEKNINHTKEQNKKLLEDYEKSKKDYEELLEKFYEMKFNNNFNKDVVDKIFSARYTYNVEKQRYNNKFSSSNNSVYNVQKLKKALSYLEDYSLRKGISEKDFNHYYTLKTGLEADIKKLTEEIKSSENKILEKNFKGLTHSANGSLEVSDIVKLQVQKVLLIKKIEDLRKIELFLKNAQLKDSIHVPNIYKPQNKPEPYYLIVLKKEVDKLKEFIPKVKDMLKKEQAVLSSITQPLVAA

T3: P. falciparum MSP-1 subunit p38 (plate-bound, isolated) (Plasmodium falciparum, UniProt Q8I0U8 911-1326)
T3 construct: domain: p38
T3 sequence: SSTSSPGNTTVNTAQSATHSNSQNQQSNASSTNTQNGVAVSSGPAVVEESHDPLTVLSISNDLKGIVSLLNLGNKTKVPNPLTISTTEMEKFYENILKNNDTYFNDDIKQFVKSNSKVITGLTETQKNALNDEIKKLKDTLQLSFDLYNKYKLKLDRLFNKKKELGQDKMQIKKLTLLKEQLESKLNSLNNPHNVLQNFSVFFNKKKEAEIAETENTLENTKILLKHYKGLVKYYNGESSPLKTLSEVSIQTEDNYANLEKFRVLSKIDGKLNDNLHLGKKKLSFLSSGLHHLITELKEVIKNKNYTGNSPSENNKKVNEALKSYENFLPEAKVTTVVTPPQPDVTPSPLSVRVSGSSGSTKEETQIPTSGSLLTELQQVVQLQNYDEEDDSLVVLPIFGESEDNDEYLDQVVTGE

T4: P. falciparum MSP-1 subunit p42 (plate-bound, isolated) (Plasmodium falciparum, UniProt Q8I0U8 1327-1699)
T4 construct: domain: p42
T4 sequence: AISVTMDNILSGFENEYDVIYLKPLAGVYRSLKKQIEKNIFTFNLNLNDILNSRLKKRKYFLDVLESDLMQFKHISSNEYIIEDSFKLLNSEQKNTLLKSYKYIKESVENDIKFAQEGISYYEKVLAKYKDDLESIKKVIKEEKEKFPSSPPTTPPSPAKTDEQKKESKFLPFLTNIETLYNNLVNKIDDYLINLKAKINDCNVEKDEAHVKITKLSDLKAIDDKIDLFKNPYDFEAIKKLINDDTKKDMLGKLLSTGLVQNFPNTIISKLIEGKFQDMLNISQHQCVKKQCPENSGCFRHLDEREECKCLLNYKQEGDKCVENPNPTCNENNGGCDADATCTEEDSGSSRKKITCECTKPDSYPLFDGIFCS


Experiments:
[1] = biological target: T1, MICB expressed on transfected B16F10 …; test: flow cytometry of transfected B16F10 cells, biotinylated nanobody with streptavidin-PE
[2] = biological target: T2, P. falciparum MSP-1 subunit p83 …; test: Western blot against PfMSP-1 subunits
[3] = biological target: T3, P. falciparum MSP-1 subunit p38 …; test: Western blot against PfMSP-1 subunits
[4] = biological target: T4, P. falciparum MSP-1 subunit p42 …; test: Western blot against PfMSP-1 subunits

Binder | binding result [1] | binding result [2] | binding result [3] | binding result [4]
anti-MICA VHH nanobody clone A1 (VHH) VHH: QVQLVESGGGLVQPGGSLRLSCAASGFTLDYYDIGWFRQAPGKEREGVSCITSSDGSTYYADSVKGRFTISRDNAKNTVYLQMNSLKPEDTAVYYCAADCTKPQWKSKTEAWGQGTQVTVSS | no binding |  |  | 
anti-p42 A6 VHH (P. falciparum MSP-1 specific) (VHH) VHH: QVQLVESGGGLVQAGGSLRLSCAASARTFSYYGAAWFRQAPGKEREFVAAVSWNGDDTYYADSVKGRFTISRDNTKNTVSLQMNALKPEDTAVYYCEAAAYGRDWRQSANYVYWGQGTQVTVSS |  | no binding | no binding | 
anti-MICA VHH nanobody clone H3 (VHH) VHH: QVQLVETGGGLVQAGGSLRLSCAASGRTFSSYAMGWFRQAPGKEREFVAGISWSGGSTYYGDSVKGRFTISRDNAKNTVYLLMNSLKPEDTAVYYCAADLVRSYGSSWPSLFQFRNPEDVQDGMDYWGKGTLVTVSS | no binding |  |  | 
anti-p42 G11 VHH (P. falciparum MSP-1 specific) (VHH) VHH: QVQLVETGGGLVQAGGSLRLSCVVSGRSLILYGMGWFRQAPGKEREFVAGIVWNGGWTYYADSVKGRFTISRDTAKNTVYLQMNSLKPEDTAVYSCAAGPGDGRRRVAPAEYNYWGQGTQVTVSS |  | no binding | no binding | 
anti-p83 B4 VHH (P. falciparum MSP-1 specific) (VHH, also called anti-p84 B4) VHH: QLQLVESGGGLAQAGGSLRLSCAASGRTSSTKPMGWFRQAPGLEREFVASISWLGGSTLYSDSVKGRFTISRDNAKNTVYLQMNSLKSEDTAVYYCAGGTSAYSGRDSSRYEYWGQGTQVTVSS |  |  | no binding | no binding
